The values below come from patent publication US6235873.

The subject of this data set is Stat3-C (A662C/N664C Stat3) (Mus musculus). Put plainly: cell_activity. The note with it: approximately 10-fold, no induced tyrosine phosphorylation.

Substance 4x m67 luciferase reporter gave an activity (fold over background) of 10.
